# Positions count from the first letter of the chain named.
# B1: 2zjr_a: minimal PG9 epitope-scaffold, SEQ ID NO: 17, native scaffold PDB 2ZJR (protein)
# chain: SHYDILQAPVISEKAYSAMERGVYSFWVSPGATKTEIKDAIQQAFGVRVIGISVKHCSFNITTDVKDRKQKVNATFAIVRLAEGQSIEALAGQ
# modifications: Human immunodeficiency virus
# B2: 2ZJR: 2ZJR epitope-scaffold of FIG. 58; legend leaves open whether 2ZJR_A or 2ZJR_B (protein)
# chain: B1 chain
# B3: PG9e-encapsulin (ZM109): encapsulin particle displaying the minimal PG9 epitope (gp120 154-177) of HIV-1 strain ZM109 (protein)
# chain: MEFLKRSFAPLTEKQWQEIDNRAREIFKTQLYGRKFVDVEGPYGWEYAAHPLGEVEVVKHSSFNITTDVKDRKQKVNATFGLRKSLPLIELRATFTLDLWELDNLERGKPNVDLSSLEETVRKVAEFEDEVIFRGCEKSGVKGLLSFEERKIECGSTPKDLLEAIVRALSIFSKDGIEGPYTLVINTDRWINFLKEEAGHYPLEKRVEECLRGGKIITTPRIEDALVVSERGGDFKLILGQDLSIGYEDREKDAVRLFITETFTFQVVNPEALILLK
# B4: PG9e-ferritin (ZM109): ferritin particle displaying the minimal PG9 epitope (gp120 154-177) of HIV-1 strain ZM109 (protein)
# chain: MLSKDIIKLLNEQVNKEMQSSNLYMSMSSWCYTHSLDGAGLFLFDHAAEEYEHAKKLIIFLNENNVPVQLTSISAPEHKFEGLTQIFQKAYEHEQHISESINNIVDHAIGVKHSSFNITTDVKDRKQKVNATFYGKDHATFNFLQWYVAEQHEEEVLFKDILDKIELIGNENHGLYLADQYVKGIAKSRKS
# B5: 2f7s_B: minimal PG9 epitope-scaffold, SEQ ID NO: 52, native scaffold PDB 2F7S (protein)
# chain: DYDYLIKLLALGDSGVGKTTFLYRYTDNKFNPKFITTVGIDVKHASFNITTDVKDRKQKVNATFYDTAGQERFRSLTTAFFRDAMGFLLMFDLTSQQSFLNVRNWMSQLQANAYCENPDIVLIGNKADLPDQREVNERQARELADKYGIPYFETSAATGQNVEKAVETLLDLIMKRMEQCVE
# modifications: Human immunodeficiency virus
# B6: 2f7s_C: minimal PG9 epitope-scaffold, SEQ ID NO: 53, native scaffold PDB 2F7S (protein)
# chain: B5 chain with D41C, D66C
# modifications: Human immunodeficiency virus
# B7: 1x3e_C: minimal PG9 epitope-scaffold, SEQ ID NO: 68 in Table 2 (SEQ ID NO: 67 in b296), native scaffold PDB 1X3E (protein)
# chain: GDTTITVVGNLTADPELRFTPSGAAVANFTVASTGSALFLRCNIWREAAENVAESLTRGSRVIVTGRLCVKHASFNITTDVKDRKQKVNATFYCVEVDEIGPSLR
# modifications: Human immunodeficiency virus
# B8: 1x3e_a: minimal PG9 epitope-scaffold, SEQ ID NO: 66, native scaffold PDB 1X3E (protein)
# chain: B7 chain with C69K, A73C, C94E
# modifications: Human immunodeficiency virus
# B9: 3pyr_a: minimal PG9 epitope-scaffold, SEQ ID NO: 76, native scaffold PDB 3PYR (protein)
# chain: MKTAYDVILAPVLSEKAYAGFAEGKYTFWVHPKATKTEIKNAVETAFKVKVVKVNTKHASFNITTDVKDRKQKVNATFAIVQVAPGQKIEALEGLIG
# modifications: Human immunodeficiency virus
# B10: 2zjr_b: minimal PG9 epitope-scaffold, SEQ ID NO: 18, native scaffold PDB 2ZJR (protein)
# chain: B1 chain with V54T, C57A
# modifications: Human immunodeficiency virus
# B11: 1t0a_a: minimal PG9 epitope-scaffold, SEQ ID NO: 77, native scaffold PDB 1T0A (protein)
# chain: KIRIGHGFDVHKFGKHASFNITTDVKDRKQKVNATFGLVAHSDGDVVLHAISDAILGAMALGDIGKHFPDTDAAYKGADSRVLLRHCYALAKAKGFELGNLDVTIIAQAPKMAPHIEDMRQVLAADLNADVADINVKATTTEKLGFTGRKEGIAVEAVVLLSRQG
# modifications: Human immunodeficiency virus
# B12: 1vh8_c: minimal PG9 epitope-scaffold, SEQ ID NO: 65, native scaffold PDB 1VH8 (protein)
# chain: SLIRIGHGFDVHAFGKHASFNITTDVKDRKQKVNATFGFIAHSDGDVALHALTDAILGAAALGDIGKLFPKNADSRGLLREAFRQVQEKGYKIGNVDITIIAQAPKMRPHIDAMRAKIAEDLQCDIEQVNVKATTTEKLGFTGRQEGIACEAVALLIRQ
# modifications: Human immunodeficiency virus
# B13: 1vh8_a: minimal PG9 epitope-scaffold, SEQ ID NO: 63, native scaffold PDB 1VH8 (protein)
# chain: B12 chain with G15V, A18C, G38Y
# modifications: Human immunodeficiency virus
# B14: 1vh8 b: minimal PG9 epitope-scaffold, SEQ ID NO: 64, native scaffold PDB 1VH8 (protein)
# chain: B12 chain with G15V, G38Y
# modifications: Human immunodeficiency virus
# B15: 2vxs_a: minimal PG9 epitope-scaffold, SEQ ID NO: 37, native scaffold PDB 2VXS (protein)
# chain: TNPKRSSDYYNRSTSPWNLHRNEDPERYPSVIWEAKCRHLGCINADGNVDYHMNSISQNITTDVKDRKQKVNATCTCVTPIVH
# modifications: Human immunodeficiency virus
# B16: 1YN3_A: minimal PG9 epitope-scaffold, SEQ ID NO: 28, native scaffold PDB 1YN3 (protein)
# chain: GSHVSFNITTDVKDRKQKVNATFYKNQNISYKDLEGKVKSVLESNRGITDVDLRLSKQAKYTVNFKNGTKKVIDLKSGIYTANLINSSDIKSININID
# modifications: Human immunodeficiency virus
# Test system: PG9 Fab
# Assay: Gel filtration of epitope scaffold complex with PG9 Fab
# Type: binding, human
# Settings: not given
# Method: (§1) The supernatants of all wells expressing minimal epitope scaffolds were tested for binding to PG9, CH01, CH03, PGT145 and PGT142 antibodies through ELISA assays in which the supernatant was diluted 5-fold in PBS and incubated on nickel coated plates. […] Some, such as 2ZJR_A, were run over a protein A column coated in PG9 which was subsequently cleaved from the column resulting in an eluted complex consisting of the scaffolds and the PG9 Fab.
row,Molecule,complex with PG9 Fab through gel filtration
1,B1,intact complex
2,B2,forms a stable complex

# Test system: PG9
# Assay: Immunoprecipitation of protein nanoparticles with PG9
# Type: binding, human
# Settings: Protein A agarose, SDS-PAGE, Coomassie stain
# Method: (§2) The minimal PG9 epitope (residues 154-177) or variations thereof, were inserted or fused to ferritin, encapsulin or SOR genes using the schemes shown in FIG. 59. The expression plasmids were transfected into HEK293 cells grown in the presence of swainsonine, or transfected into HEK293 GnTI^−/− cells. Particles were purified from the media using lectin affinity chromatography (snow drop lectin from Galanthus nivalis) followed by size-exclusion chromatography. Binding experiments were performed by incubating purified particles or particle-containing expression supernatant with the listed antibodies (PG9, PG16, VRC01) and Protein A agarose resin. After this incubation, the resin was pelleted and washed several times, and then incubated with SDS-containing buffer at 100 C. The solubilized and denatured proteins were separated by SDS-PAGE and visualized with Coomassie stain.
row,Molecule,immunoprecipitation by PG9
1,B3,immunoprecipitate
2,B4,immunoprecipitate

# Test system: monoclonal antibody PG9
# Assay: ELISA of minimal epitope scaffolds with PG9
# Type: binding, human
# Settings: GnTI- cell expression
# Method: as §1
row,Molecule,binding to monoclonal antibody PG9
1,B5,bind
2,B6,bind
3,B7,bind
4,B8,bind
5,B9,bind
6,B1,bind
7,B10,bind
8,B11,bind
9,B12,bind
10,B13,bind
11,B14,bind
12,B15,bind
13,B16,bind

# Test system: PG16
# Assay: Immunoprecipitation of protein nanoparticles with PG16
# Type: binding, human
# Settings: Protein A agarose, SDS-PAGE, Coomassie stain
# Method: as §2
row,Molecule,immunoprecipitation by PG16
1,B4,interacts

# — patent US20140348865A1, “[…] ON AN HIV-1 V1V2 SITE-OF-VULNERABILITY” (The United States of America, as represented by the …, priority 2011, published 2014)
